Assay: soluble on expression in E. coli; label from the status in PepcDB or PDB records
With “AIADIEVDIIEFKVPLENNKTIFIWDIQPTFTEAYIYESLWSVYSAFGDLYLLKVCPNATVAEPGFYALVKFYSSAQASKAQRATDKQCLFQSSPLKVRLSTKQNLSFYSSKPLCLSKCHNLANHYLGFGGWTTRIVTLKDLSNCVDAGCQEETGDQGVLLKYGCIMELSFPHHGMSCQGVGVAEEVLDSDQDPEEKLRKRGALMKRAKDKAMEVAFEKVLLLILGNGKVAIEIKIDPDEIVPEENSERVIKVNDISWTHIESADSNAEEDFLWDLTEDLPY” the “soluble on expression in E. coli” value was “soluble”.
In the case of “MINLTHIASSLARAALSDSTKPKMERAINVASHIAGKVALQVTSSLLEQKGLLNERQQKGLSMILKALSGKEPVNNVETHEGGGRFNLARAAFDVASVVWERDKSMHNVMSFLGVSDSKGKMLFSLGKKLADAMAKPEPGKDNSEATNARHAYFSSNLKLNKLMNDLTDQVFNKIR”, the “soluble on expression in E. coli” value was “not soluble”.
With “MVLGTVLLPPNSYGRDQDTSLCCLCTEASESALPDLTEALHRPYGCDVEPQALNEAIRWSSKENLLGATESDPNLFVALYDFVASGDNTLSITKGEKLRVLGYNQNGEWSEVRSKNGQGWVPSNYITPVNSLEKHSWYHGPVSRSAAEYLLSSLINGSFLVRESESSPGQLSISLRYEGRVYHYRINTTADGKVYVTAESRFSTLAELVHHHSTVADGLVTTLHYPAPKCNKPTVYGVSPIHDKWEMERTDITMKHKLGGGQYGEVYVGVWKKYSLTVAVKTLKEDTMEVEEFLKEAAVMKEIKHPNLVQLLGVCTLEPPFYIVTEYMPYGNLLDYLRECNREEVTAVVLLYMATQISSAMEYLEKKNFIHRDLAARNCLVGENHVVKVADFGLSRLMTGDTYTAHAGAKFPIKWTAPESLAYNTFSIKSDVWGKVERDFFLCHFIFFFINALIL” the “soluble on expression in E. coli” value was “soluble”.
In the case of “NAIQWVEHTDRVINNTNRSMKLSIDMETGMRGFLLTGDQHFLDPYEIAKPLLVAELNGLQDLVKDNPTQQDRFRRLFTMQQEWNVFAQDMIDLRRNNGDFQTPVLAGRGKRITDQIRTEYEQAVEMEQQLRLTRNAE”, the “soluble on expression in E. coli” value was “not soluble”.
With “MGSDKIHHHHHHMPEAAFTHERRCSSLCAFVSSSQSPTTNAETIREARSSRCDKTSMTPSFKELKSRFGLDEINTTDAYIIEALIIMAAISLMMSRVIVDELRSLEARQREVEAAADADESASRLPRRRCSLAVERHAHLIQLYLMVELGYELPDLDELLLWASRNPNPHRDRLREQVERGEFGFGRH” the “soluble on expression in E. coli” value was “not soluble”.
For “MAHHHHHHMSTSVVARHPQMRPSRKRQAQRQHPRQQRSVAHKAQRAPSSGHGASSVEHLPRDAVVHVALRQQHRPAGQAHSRIKRHRVVLRRQKVVPHKRHGGARHTHSPTHRHRVLAQQEVAVNKRHHGAAAGRNAALHRHAQPQRRLHQQSVHVQRTARRQRHAANHQHANSVAEHSRHLRSRNCQHAPRQIHVVHHEARRRVAKVVGAAVRNTRLCYQHRVHHSDARARRKPVRHQHTAARTRLKTADQHINALASRRVGPPPNNVQARSAQKRAVRQRHVAHAP”, the “soluble on expression in E. coli” value was “not soluble”.
In the case of “MSLGDSRTKPMEILLVEDGLVDARVTIHALRRSGLHHRLTLVRSVHEAILFMKRTGIFARAPRLDLLLLDMILPDGTGIDVLEEMSELQPDSSRVTTVVLTACEDASYRTRCDELGVYDYIQKPVSEDEFLRVVRDHKKLMIHLQQAAVSAAAGNHSEGHHHHHH”, the “soluble on expression in E. coli” value was “soluble”.
For “GPGSMTDDSSGLQSELSHALEGEGNLSVDAMLSQSLVKADLQTPSARILLKKIERPPGRFDLLTNSLVYSWQTTAAQARKVTGPMREWASELKYRTGVHLEVEPTNPTRLGVPEEEGGYAAADDVELTVYLFGSERGIFNCRQLMETALDQNPAYVRLAVFRRRPGKGVSTSTAAVPRPQEDVEWLLLRRINRDLRPPDIPPISLKTPGKWTLLYEQYKEAAIRTLWEETGITVEAGNVYPTAVLCQDNPIYYWRVPVHYFLAEVPYDVQVLGPQVGLNTYMHHWDSSLLRQSPDPIDRAWAQLADPETGCAWMKQPMIDELQRPLRGENYMATRYTPPPYSQLNHALGLAVPAEAAGEASAADSALSAATTAEGGEAQDDVKEDDAAAPSADADASSSNDKPSS”, the “soluble on expression in E. coli” value was “soluble”.
For “SDMGTSALSKKPWWTLPQNFHAPMVFHMEEDQEELIFGHGDTYLRCIEVHSHTLIQLESWFTATGQTRVTVGPHRARQWLLHMFCCVGSQDSYHHARGLEMLERVRSQPLTNDDLVTSISVPPYTGDLSLAPRISGTVCLSVPQPSPYQVIGCSGFHLSSLYP”, the “soluble on expression in E. coli” value was “soluble”.
In the case of “MNSQDAQNQVPPQKVDQEVDRLALMARAHQAIGELSDILVPLAAAFSSKGHSLYLVGGSVRDAFLGELGHDLDFTTSARPEETKAILDDYADVVWDTGIAFGTLSAEKHGQQIEITTFRSDLYDGNSRNPEVTFGDTLEGDLIRRDFKVNAMAVEIQADGELTFHDPVGGLEDLLTHTLDTPATPEQSFNDDPLRMLRAARFVSQLNFTLAPRVITAMTEMAQQITRITVERMQVELDKMILGKNPEAGIDLMVESGIAQIIYPEIPAMQMTQDEHMQHKDVYAHSLQVMRQAIDQEEDGPDLVLRWAALLHDCGKPDTRDFNEEGRVSFHQHEVVGAKLVRRRMRKLKYSKQMVGDVGQLVFLHMRFHGFSEGQWTDSAVRRYAADAGELLPRLHKLVRADCTTRNKRKAARLQATYDHLEERIAEIAAKEDLARVRPDLDGNEIMEILNIQAGPEVGKAWAFLKELRLERGPLDREVAIAELKSWWEGENNE”, the “soluble on expression in E. coli” value was “not soluble”.
In the case of “EKATENSPLVMIEYSSPNTNKPLHLGHVRNNLLGNALANVMAANGNKVVKTNIVNDRGIHICKSMLAWLKYGNGETPESSGKKGDHLIGDYYVAFDKHYKAEVKELTAQYQAEGLNEEEAKAKAEANSPLMLEAREMLRKWEANDPEIRALWKKMNDWVYAGFDETYKMMGVSFDKIYYESNTYLEGKEKVMEGLEKGFFYRKEDNSVWADLTAEGLDHKLLLRGDGTSVYMTQDIGTAKLRFQDYPINKMIYVVGNEQNYHFQVLSILLDKLGFEWGKGLVHFSYGMVELPEGKMKSREGTVVDADDLMEAMIETAKETSAELGKLDGLTQEEADNIARIVGLGALKYFILKVDARKNMTFNPKESIDFN”, the “soluble on expression in E. coli” value was “not soluble”.
In the case of “MSLDRIKEYLQDKGKVTVNDLAQALGKDSSKDFRELIKTLSLMERKHQIRFEEDGSLTLEAKKKHEITLKGIFHAHKNGFGFVSLEGEEDDLFVGKNDVNYAIDGDTVEVVIKKVADRNKGTAAEAKIIDILEHSLTTVVGQIVLDQEKPKYAGYIRSKNQKISQPIYVKKSALKLEGTEVLKVFIDKYPSKKHDFFVASVLDVVGHSTDVGIDVLEVLESMDIVSEFPEAVVKEAESVPDAPSQKDMEGRLDLRDEITFTIDGADAKDLDDAVHIKALKNGNLELGVHIADVSYYVTEGSALDKEALNRATSVYVTDRVVPMLPERLSNGICSLNPQVDRLTQSAIMEIDKHGRVVNYTITQTVIKTSFRMTYSDVNDILAGDEEKRKEYHKIVSSIELMAKLHETLENMRVKRGALNFDTNEAKILVDKQGKPVDIVLRQRGIAERMIESFMLMANETVAEHFSKLDLPFIYRIHEEPKAEKVQKFIDYASSFGLRIYGTASEISQEALQDIMRAVEGEPYADVLSMMLLRSMQQARYSEHNHGHYGLAADYYTHFTSPIRRYPDLLVHRMIRDYGRSKEIAEHFEQVIPEIATQSSNRERRAIEAEREVEAMKKAEYMEEYVGEEYDAVVSSIVKFGLFVELPNTVEGLIHITNLPEFYHFNERDLTLRGEKSGITFRVGQQIRIRVERADKMTGEIDFSFVPSEFDVIEKGLKQSSRSGRGRGSNRRSDKKEDKRKSGRSNDKRKHSQKDKKKKGKKPFYKEVAKKGAKHGKGRGKGRRTKEGHHHHHH”, the “soluble on expression in E. coli” value was “not soluble”.
For “MMSTPALRPYLPEDAAVTAAIFVASIEQLTADDYSEEQQEAWASAADDEAKFAARLSGQLTLIATLQGVPVGFASLKGPDHIDMLYVHPDYVGRDVGTTLIDALEKLAGARGALILTVDASDNAAEFFAKRGYVAKQRNTVSINGEWLANTTMTKSLADSAAPGASS”, the “soluble on expression in E. coli” value was “soluble”.
In the case of “MSLATTLVLGGGYAGMRAVKFLQKSLPTEDEIILVDQTPTHTEKTNLHEVAAGTIAPDRITYQIPDIIGKRVQFVQATVKNVDIEQKQVTFEDHPEMTYDYLVLALGFQSETFGVAGADENALPMDDLATSQAVYEHLEERFKAYRTSKDKNDLKIAVCGAGFTGIELLGELTQTLPRLQAKYQTPAAKLVCLERMPSILPMFTQELRDYALKFMEKNNVEMRLGAVIEAIKPGAVVYSDADKNEHEFTANTIIWTVGVSGSHVIADSGFDQRRNRVVVKPDLSLEGHPEVFIVGDVAAVMDPESNRPYPTTAQIALAAGEQAAKNIGALRHNQATATFHYESSGTVASLSDRDGIGEIFSSNKPVHGYAASALKKIITDRSLLESAHLGTVFSKGRFDLYHEGHHHHHH”, the “soluble on expression in E. coli” value was “soluble”.
With “MRGSHHHHHHTDPALRAIKVYGVPGWGSTISELMLTLADIPYQFVDVSGFDHEGASRELLKTLNPLCQVPTLALENDEIMTETAAIALMVLDRRPDLAPPVGRAERQLFQRLLVWLVANVYPTFTFADYPERWAPDAPEQLKKNVIEYRKSLYIWLNSQLTAEPYAFGEQLTLVDCYLCTMRTWGPGHEWFQDNATNISAIADAVCQLPKLQEVLKRNEIIGLCGR” the “soluble on expression in E. coli” value was “soluble”.
In the case of “MNSRIPEDLIERAHRGKTTKEDALLLLEVPPFELFRFADELRDLAAGDTVTYVVNRNINFTSRCTGSCGFCAFRTDDGKVLSIEEIMEKVREAEKANATEVCIQGGLLPDVGLDFYQGIVEAIKAEFPEMHVHSFSPMEVYHASRISEIPVKESLRRLKRSGLDTMPGTAAEILSDRVRKIICPAKLNTAEWIEVVTQAHAAGIPTTATMMYGHVETPEERINHMLTIREIQKETGGITEFVPLPFMPYNNPVGEKMIKEGRYATPGLEDLKVYAVSRILFHGHVDNIQASWVKLGKKFAQFSLHCGVNDLGGTLMEESISRSAGACHGEMITVDELEWMIHGAGRIPKERTTLYREAHELASRNSRKIAGCGAFE”, the “soluble on expression in E. coli” value was “not soluble”.
With “RRHKNKNPFHFNSKRFQTLFKNQYGHVRVLQRFNKRSQQLQNLRDYRILEFNSKPNTLLLPHHADADYLIVILNGTAILTLVNNDDRDSYNLQSGDALRVPAGTTYYVVNPDNDENLRMITLAIPVNKPGRFESFFLSSTQAQQSYLQGFSKNILEASYDTKFEEINKVLFGREEGQQQGEERLQESVIVEISKKQIRELSKHAKSSSRKTISSEDKPFNLRSRDPIYSNKLGKLFEITPEKNPQLRDLDVFLSVVDMNEGALFLPHFNSKAIVVLVINEGEANIELVGIKEQQQRQQQEEQPLEVRKYRAELSEQDIFVIPAGYPVVVNATSDLNFFAFGINAENNQRNFLAGSKDNVISQIPSQVQELAFPGSAKDIENLIKSQSESYFVDAQPQQKEEGNKGRKGPLSSILRAFY” the “soluble on expression in E. coli” value was “soluble”.
With “MSLIHAGSMIDGVAKKIKTKQTIVIEDGVIIDVKSGYTKAKPNDIVIDLKNTTVTPGWMDLHVHLGSQSSPQSYSEDFYLNPEDFAYRSVPWIEKTLLAGFTTVRDVGGEVVLAARNAVNNGYINGPRIFSAGRSIGTTGGHADPSSGLNRKFRGDPGPHDAVVNGVDDAMKAVRQRYKDGSDLIKITATGGVLSVAKNGQNPQFTEEEIRAIVETAKDYEMHVAAHAHGVEGMQRAIRAGVRTIEHGTLMDRPTARLMKKYGTYYVPTVSAGEFVYEKAKEPGYFPEIVRPKALEIGPKIKKTLGMAYEEGVKIAFGTDMGVSPHGENADEFVYMVEAGMKPIDAIFAATSIAAEVLNQEDLGKIKKGMKADIVAVNGNPLKDIAVTKNVVFVMKDGVVYKQPINLKEGHHHHHH” the “soluble on expression in E. coli” value was “soluble”.
For “MYDTEIPYEGKISIYTYFCKECGYRKTEVYSDEKRDPKKITIRIENPDDLRIIVYRSRRADVYIPEMEASIDSAEYSNGEITTIEGIIYRIGEKLDLLAADDQNNKKIASLRKRIDGIINGKFESFTLIIMDESGKSVVHSDKAMVESMD”, the “soluble on expression in E. coli” value was “soluble”.

From the DeepSol protein solubility set
